For assay [1], the target named is T1, human ASGPR H1 on ASGPR-positive hepatic cells (HepG2, primary human hepatocytes, Huh-7) (human, UniProt P07306 1-291).
T1 construct: whole, on cells; Endogenous receptor on cells; the antibodies were selected on H1; also called surface-exposed ASGPR
T1 sequence (looked up): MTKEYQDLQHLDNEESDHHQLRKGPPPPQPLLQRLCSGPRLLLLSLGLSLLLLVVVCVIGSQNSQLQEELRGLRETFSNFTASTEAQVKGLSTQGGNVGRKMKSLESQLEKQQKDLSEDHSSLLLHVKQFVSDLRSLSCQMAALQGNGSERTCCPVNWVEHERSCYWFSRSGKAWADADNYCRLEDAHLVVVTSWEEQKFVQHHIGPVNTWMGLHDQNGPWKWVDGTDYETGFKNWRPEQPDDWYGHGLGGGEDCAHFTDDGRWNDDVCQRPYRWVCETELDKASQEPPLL
Briefly: FACS on HepG2 cells, human IgG1 at 0.01 to 10 µg/ml.

Assay [2] concerns the target T1, human ASGPR H1 on ASGPR-positive …. The assay is described as follows: FACS on HepG2 cells, human IgG1 at 30 µg/ml, 30 min at 4°C, FITC anti-human IgG Fc secondary F(ab')2.
Assay [3] concerns the target T2, avi-Fc-cynomolgus ASGPR H1 stalk (cynomolgus, biotinylated at the N-terminal Avi tag).
T2 construct: Homodimeric Fc fusion (wild type Fc); also called cyASGPR H1 stalk
Briefly: SPR (ProteOn XPR36), antigen captured by neutravidin, Fab as analyte.

Assay [4] has as its target T3, avi-Fc-human ASGPR H1 stalk (human, biotinylated at the N-terminal Avi tag).
T3 construct: Homodimeric Fc fusion (wild type Fc); also called huASGPR H1 stalk; Fc-stalk
The description is as above.

Assay [5] has as its target T4, avi-Fc-human CLEC10A stalk CRD (human, biotinylated at the N-terminal Avi tag).
T4 construct: Homodimeric Fc fusion of the human CLEC10A ECD, closest homologue of ASGPR H1, used as specificity control; also called huCLEC10A stalk CRD
The assay is described as above.

The target in assay [6] is T5, avi-Fc-human ASGPR H1 stalk CRD (human, biotinylated at the N-terminal Avi tag).
T5 construct: Homodimeric (bivalent) Fc fusion of the human ASGPR H1 ECD (stalk and CRD); also called huASGPR H1 stalk CRD; Fc-stalk-CRD
The description is as above.

In assay [7] the target is T6, avi-Fc-human ASGPR H1 CRD (human, UniProt P0DOX5 223-449 = IgG part, biotinylated at the N-terminal Avi tag).
T6 construct: also called Fc-CRD; hu/cyASGPR H1 CRD
The assay is described as follows: SPR (ProteOn XPR36), antigen captured by neutravidin, antibody construct as analyte.

In assay [8] the target is T1, human ASGPR H1 on ASGPR-positive …. Briefly: FACS on HepG2 cells, antibody 1.25, 6 and 30 µg/ml without or with Alexa488 asialofetuin (100 µg/ml), APC anti-human IgG Fc detection.

Residue numbers refer to the chain shown, from its start.

T2 sequence (chain, as listed by the source limits assumed): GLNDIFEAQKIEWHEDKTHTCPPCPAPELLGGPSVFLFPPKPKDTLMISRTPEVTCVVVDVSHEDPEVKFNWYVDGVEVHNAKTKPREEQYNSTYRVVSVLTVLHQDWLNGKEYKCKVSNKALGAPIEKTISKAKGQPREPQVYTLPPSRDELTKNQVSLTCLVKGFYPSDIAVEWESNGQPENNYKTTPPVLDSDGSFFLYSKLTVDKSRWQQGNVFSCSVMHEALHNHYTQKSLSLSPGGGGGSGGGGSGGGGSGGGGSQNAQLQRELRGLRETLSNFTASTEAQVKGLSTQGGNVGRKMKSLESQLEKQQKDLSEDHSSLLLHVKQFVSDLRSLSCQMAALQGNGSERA
T3 sequence (chain, as listed by the source limits assumed): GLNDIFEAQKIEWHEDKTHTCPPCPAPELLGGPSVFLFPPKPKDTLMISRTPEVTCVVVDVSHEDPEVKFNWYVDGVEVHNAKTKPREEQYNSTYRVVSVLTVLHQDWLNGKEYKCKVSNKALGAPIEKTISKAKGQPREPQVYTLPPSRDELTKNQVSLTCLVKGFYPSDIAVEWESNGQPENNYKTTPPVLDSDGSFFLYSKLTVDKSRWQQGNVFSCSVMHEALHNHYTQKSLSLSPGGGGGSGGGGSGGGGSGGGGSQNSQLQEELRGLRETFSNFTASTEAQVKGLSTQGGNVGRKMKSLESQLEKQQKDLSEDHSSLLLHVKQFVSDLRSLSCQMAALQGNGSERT
T4 sequence (chain, as listed by the source limits assumed): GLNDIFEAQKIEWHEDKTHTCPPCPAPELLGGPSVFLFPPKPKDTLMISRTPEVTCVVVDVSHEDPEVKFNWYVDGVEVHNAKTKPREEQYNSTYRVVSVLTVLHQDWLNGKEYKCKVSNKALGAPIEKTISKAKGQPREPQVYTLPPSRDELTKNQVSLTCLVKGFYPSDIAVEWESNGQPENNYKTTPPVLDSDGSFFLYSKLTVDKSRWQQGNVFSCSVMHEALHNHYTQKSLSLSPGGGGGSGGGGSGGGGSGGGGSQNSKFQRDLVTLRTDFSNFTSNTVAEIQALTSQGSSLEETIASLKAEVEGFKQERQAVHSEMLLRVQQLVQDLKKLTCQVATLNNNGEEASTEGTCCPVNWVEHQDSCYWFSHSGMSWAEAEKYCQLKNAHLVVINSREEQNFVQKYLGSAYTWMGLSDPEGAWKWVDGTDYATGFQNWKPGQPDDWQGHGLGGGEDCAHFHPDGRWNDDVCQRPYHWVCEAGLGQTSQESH

B1: 51A12_D1 human IgG1 antibody (antibody, V domains shown)
VH: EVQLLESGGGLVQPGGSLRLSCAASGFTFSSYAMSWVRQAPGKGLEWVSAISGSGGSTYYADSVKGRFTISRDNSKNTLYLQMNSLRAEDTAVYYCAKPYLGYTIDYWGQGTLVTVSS
VL: SSELTQDPAVSVALGQTVRITCQGDSLRSYYASWYQQKPGQAPVLVIYGKNNRPSGIPDRFSGSSSGNTASLTITGAQAEDEADYYCNSRTYSYNRAVRPFGGGTKLTVL
notes: also called 51A12_D1 IgG1-converted antibody
As to B1, the binding result in assay [1] was “binds”.

B2: ASGPR 5A4 (antibody, V domains shown)
VH: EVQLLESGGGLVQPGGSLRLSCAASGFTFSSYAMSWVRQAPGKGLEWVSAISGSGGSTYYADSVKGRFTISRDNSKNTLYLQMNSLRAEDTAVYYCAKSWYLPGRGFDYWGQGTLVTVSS
VL: SSELTQDPAVSVALGQTVRITCQGDSLRSYYASWYQQKPGQAPVLVIYGKNNRPSGIPDRFSGSSSGNTASLTITGAQAEDEADYYCNSRLRSGKMVVFGGGTKLTVL
notes: the list has only its Fab and its IgG-IFNα conjugate; also called 5A4 IgG; 5A4 human IgG1 antibody
Regarding B2, the binding result in assay [2] was “binds”.

B3: 5A4 Fab (Fab, V domains shown)
VH: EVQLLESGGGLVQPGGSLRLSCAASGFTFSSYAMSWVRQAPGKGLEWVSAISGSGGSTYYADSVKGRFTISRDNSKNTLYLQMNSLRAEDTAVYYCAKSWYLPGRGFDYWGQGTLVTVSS
VL: B2 VL
notes: Human lambda Fab from E. coli
A word on the Kd: it is a measure of binding affinity in units of concentration. Read a low Kd as tighter binding. In general, koff refers to a measure of how fast the partners let go of each other. Read a low koff as a long-lived complex. By kon is commonly meant the rate constant with which the complex forms. Read a high kon as faster complex formation. In assay [3], B3 yielded a Kd of 3.76 nM, a koff of 0.0014 s⁻¹ and an on-rate (kon) of 372000 M⁻¹ s⁻¹. In assay [4], binding was put at a Kd of 4.3 nM, the koff was 0.00105 s⁻¹ and the kon was found to be 244000 M⁻¹ s⁻¹. Further, the binding result in assay [5] is reported as “no binding”. For the same molecule, the binding result in assay [6] is on record as “no binding”.

B4: 52C4 IgG (antibody, V domains shown)
VH: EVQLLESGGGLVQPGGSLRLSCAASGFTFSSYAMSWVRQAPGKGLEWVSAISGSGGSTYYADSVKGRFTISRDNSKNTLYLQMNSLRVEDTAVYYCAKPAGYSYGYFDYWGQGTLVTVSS
VL: B2 VL with R90G, L91A, R92S, K95N, M96Q, V97L
notes: also called 52C4 human IgG1 antibody
Consider B4, for which, in assay [7], the Kd was 0.89 nM, the koff came out at 0.000499 s⁻¹ and the kon is 557000 M⁻¹ s⁻¹. For the same molecule, the binding result in assay [8] is reported as “binds”.

These data come from patent US20190031760A1 (Hoffmann-La Roche, published 2019).
